Test results reported in paper PMC5148603.
Blank lines part the entries; values can stand above or below the molecule they belong to.

How the values were obtained:
[1] = target: coiled-coil domain of wild-type human ANGPTL4 (residues 1–159) (human); assay: SDS-PAGE before and after reduction (disulfide-linked oligomers); Coomassie blue-stained gel of purified ANGPTL4 1–159 before and after reduction and alkylation; optical scanning of lanes of two-fold serial dilutions
[2] = target: T1, bovine lipoprotein lipase (bovine) (UniProt P11151); conditions: scale: molecules of LPL per ANGPTL4 molecule per min
T1 sequence: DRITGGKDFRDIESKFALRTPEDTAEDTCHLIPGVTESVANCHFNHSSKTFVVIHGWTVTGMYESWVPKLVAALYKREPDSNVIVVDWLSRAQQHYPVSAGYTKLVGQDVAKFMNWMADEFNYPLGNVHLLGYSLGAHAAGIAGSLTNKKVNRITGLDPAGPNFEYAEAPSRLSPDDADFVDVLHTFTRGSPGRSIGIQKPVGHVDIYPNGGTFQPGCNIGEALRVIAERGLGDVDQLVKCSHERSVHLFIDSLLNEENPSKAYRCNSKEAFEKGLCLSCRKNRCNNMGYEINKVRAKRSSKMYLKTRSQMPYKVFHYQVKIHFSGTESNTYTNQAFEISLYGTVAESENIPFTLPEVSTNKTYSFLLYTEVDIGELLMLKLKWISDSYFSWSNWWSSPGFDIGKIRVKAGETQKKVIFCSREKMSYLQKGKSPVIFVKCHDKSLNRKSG

[3] = target: T1, bovine lipoprotein lipase (bovine); conditions: scale: molecules LPL per ANGPTL4 molecule per min

percent of the total protein that is covalent (disulfide-linked) dimer [1]: 10%
stoichiometry N [1]: 2
catalytic efficacy of unfolding of LPL's hydrolase domain (pulse-labelling HDX-MS, bimodality of peptide 131–165); 10 µM LPL with 0.25, 0.5 and 1 µM ANGPTL4 1–159, 25°C, early time points [2]: 1.6
Molecule: coiled-coil domain of wild-type human ANGPTL4 (residues 1–159) (domain or fragment)

catalytic efficacy of unfolding of LPL's hydrolase domain (pulse-labelling HDX-MS, peptide 131–165); 10 µM LPL with 0.5, 1 and 2 µM ANGPTL4 1–159/E15K, 25°C, linear phases of the progress curves [3]: 0.6
B1: coiled-coil domain of human ANGPTL4 E15K (residues 1–159) (domain or fragment)
chain: MGPVQSKSPRFASWDKMNVLAHGLLQLGQGLREHAERTRSQLSALERRLSACGSACQGTEGSTDLPLAPESRVDPEVLHSLQTQLKAQNSRIQQLFHKVAQQQRHLEKQHLRIQHLQSQFGLLDHKHLDHEVAKPARRKRLPEMAQPVDPAHNVSRLHRL
